Literature values in article PMC11449392.

Biological target: Abl PRM (Homo sapiens) (UniProt P00519)
Sequence of UniProt P00519 (P00519 whole entry, looked up): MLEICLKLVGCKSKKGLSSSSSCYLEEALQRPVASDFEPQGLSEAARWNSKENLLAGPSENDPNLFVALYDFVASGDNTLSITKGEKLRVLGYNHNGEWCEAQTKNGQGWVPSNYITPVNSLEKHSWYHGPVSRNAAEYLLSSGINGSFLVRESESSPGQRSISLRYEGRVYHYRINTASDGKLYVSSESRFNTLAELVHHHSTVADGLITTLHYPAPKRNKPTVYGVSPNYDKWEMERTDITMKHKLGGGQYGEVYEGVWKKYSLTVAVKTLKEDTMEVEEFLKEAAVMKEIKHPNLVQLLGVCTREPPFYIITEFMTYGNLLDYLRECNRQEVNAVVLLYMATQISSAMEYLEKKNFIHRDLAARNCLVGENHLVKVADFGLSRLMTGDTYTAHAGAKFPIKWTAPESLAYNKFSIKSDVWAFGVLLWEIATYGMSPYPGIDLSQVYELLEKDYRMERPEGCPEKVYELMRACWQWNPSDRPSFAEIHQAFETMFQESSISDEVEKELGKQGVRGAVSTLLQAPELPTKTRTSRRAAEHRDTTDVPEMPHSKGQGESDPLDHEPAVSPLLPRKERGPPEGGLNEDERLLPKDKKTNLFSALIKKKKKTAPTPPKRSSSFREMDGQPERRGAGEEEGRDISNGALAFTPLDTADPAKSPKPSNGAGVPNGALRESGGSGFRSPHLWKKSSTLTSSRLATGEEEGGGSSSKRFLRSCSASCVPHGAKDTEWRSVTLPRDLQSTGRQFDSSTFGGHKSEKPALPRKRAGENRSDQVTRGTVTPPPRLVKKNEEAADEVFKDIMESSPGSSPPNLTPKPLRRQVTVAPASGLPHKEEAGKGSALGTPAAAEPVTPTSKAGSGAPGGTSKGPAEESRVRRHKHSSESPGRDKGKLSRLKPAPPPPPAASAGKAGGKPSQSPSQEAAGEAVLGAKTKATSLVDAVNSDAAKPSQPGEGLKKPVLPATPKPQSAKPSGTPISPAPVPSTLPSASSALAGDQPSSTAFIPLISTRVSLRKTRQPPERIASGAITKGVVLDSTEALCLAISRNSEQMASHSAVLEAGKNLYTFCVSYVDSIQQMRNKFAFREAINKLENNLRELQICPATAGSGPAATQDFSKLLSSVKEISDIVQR

Kd: 350 µM
Substance: Nck second SH3 domain (from UniProt P16333)
